Data: the supplement of paper PMC10567573
± gives the standard deviation.

Experiment: protein stability index of a GFP-peptide fusion (GPS, HEK-293T) (PSI 1-6); higher = more stable
Settings: c terminus: a fixed tail appended
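Also: 24-mer peptide tiles fused after GFP, lentivirally expressed, FACS-sorted into six equal bins by GFP/DsRed ratio, decoded by Illumina sequencing, PSI is the read-weighted mean bin number.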

Row | Sequence | protein stability index (treatment: DMSO) | protein stability index (treatment: MLN4924 1 uM, 8 h)
1 | GLTFLLPFLFFGHFWQLFNALTLF [TMEM120A] | 2.85 ± 0.11 | 2.63 ± 0.052
2 | DGKLRLLTKLLASKSKEEVSSLIS [FEM1C] | 2.33 ± 0.28 | 1.92 ± 0.39
3 | IKHVLQTFGPIPEFSRATAEKVNQ [CRYL1] | 3.39 ± 0.44 | 3.43 ± 0.51
4 | VSAEGSHPDPAPFCADNPSELPPP [DVL3] | 5.25 ± 0.27 | 5.32 ± 0.18
5 | AVLGGFLYAVGGQDGVSCLNIVER [KLHL20] | 2.16 ± 0.45 | 2.55 ± 0.47
6 | KQLIYRVRRTDDTPVVLVGNKSDL [RIT1] | 3.06 ± 0.26 | 3.23 ± 0.23
7 | MAAEIQPKPLTRKPILLQRMEGSQ [WDFY2] | 4.05 ± 0.27 | 3.8 ± 0.38
8 | AQILPSRVQGGCYRFDSSSCSSED [DRICH1] | 4.05 ± 0.26 | 3.92 ± 0.35
9 | ASGSTQRQPPPPAPQHPQPGSQAL [FBXO28] | 5.14 ± 0.27 | 5.12 ± 0.089
10 | HDPLYGKLFSTYLRPPHTSRGTSQ [LPCAT4] | 3.27 ± 0.34 | 3.76 ± 0.21
11 | LEEALYEYQPLQIETYGPHVPELE [MNAT1] | 3.25 ± 0.6 | 3.65 ± 0.47
12 | ARGLDDAAARGGQCPGLGPAPTPT [ZBED3] | 4.65 ± 0.14 | 4.7 ± 0.25
13 | TFKSLSHIDPDVLYPSLNVTSFDS [ALG2] | 2.77 ± 0.14 | 2.92 ± 0.19
14 | LLGFLRIRVRGQRASRLQAPVLVA [LPCAT4] | 2.37 ± 0.52 | 2.12 ± 0.29
15 | YSSQLSQVQSLITNVESQLAEIRC [KRT34] | 3.07 ± 0.21 | 3.24 ± 0.24
16 | HLHLETFKAVLDGLDVLLAQEVRP [PRAME] | 2.18 ± 0.43 | 1.98 ± 0.29
17 | PGSQALPAPALAPDQLPQNNTLVA [FBXO28] | 4.74 ± 0.35 | 4.88 ± 0.37
18 | PTEGAGSPAKASQASKLRASKEEK [FBF1] | 5.41 ± 0.21 | 5.43 ± 0.28
19 | QVPEEMSRCRNSYTEQELKPLTLE [DLC1] | 4.48 ± 0.26 | 4.46 ± 0.29
20 | DRGDYYLEGYRDNAYKDLAWKHGN [PCMTD1] | 3.18 ± 0.2 | 3.29 ± 0.19
21 | YFATFYSCTPRMNRRMVGPDVIPL [FAM189A2] | 2.72 ± 0.27 | 2.54 ± 0.55
22 | EELLWRKVYYEVIQLIKTNKKHIH [SMG5] | 2.8 ± 0.59 | 2.4 ± 0.39
23 | EAQTSGKERLLLSAAVPAGQTYVD [CHIT1] | 4.15 ± 0.41 | 4.3 ± 0.26

Row | Sequence | protein stability index (treatment: DMSO) | protein stability index (treatment: MLN4924 1 uM, 8 h)
24 | SYDVALHRTRLQDLRVLVSNASED [SCARA5] | 3.77 ± 0.18 | 3.93 ± 0.27
25 | VVRYLLEQRADPNAKAHCGATALH [FEM1B] | 2.23 ± 0.21 | 2.34 ± 0.18
26 | SDPQLIVQLRFCGRQPCGRFLRAY [TRADD] | 2.35 ± 0.69 | 2.11 ± 0.27
27 | CKSGYHPTKSHSFRAMCQNGKLVY [CFHR2] | 2.16 ± 0.18 | 2.38 ± 0.43
28 | GPRFGPRNDKIKHVQNQVDEVIDV [VAMP4] | 4.24 ± 0.49 | 4.63 ± 0.22
29 | FRGRRDVSGSWERDQQVEAAQRAL [RETREG3] | 4.48 ± 0.27 | 4.28 ± 0.23
30 | NLLQPNFEAAFGTTPSTSSSSSFD [SNAP91] | 4.11 ± 0.093 | 4.08 ± 0.046
31 | GNSRSAPPTRGPPPSYGGSSRYDD [RBMX] | 4.94 ± 0.34 | 5.05 ± 0.15
32 | EKKDLKLEPPEEEIIEGNTKSHIM [NECAB1] | 5.46 ± 0.17 | 5.43 ± 0.14
33 | NSTQADEGKTKKGVLEAPDTQVNP [FBXO34] | 5.49 ± 0.19 | 5.41 ± 0.18
34 | MNQTCCPQYTIRCRPLQFQPSKSH [ATE1] | 2.06 ± 0.27 | 2.1 ± 0.25
35 | SHGYDMSTFIRRYSRYLNEKAFSY [SNAP91] | 2.17 ± 0.24 | 2.3 ± 0.52
36 | SNYFSMDSMEGKRSPYAGLQLGAA [TRIM29] | 2.88 ± 0.3 | 2.99 ± 0.22
37 | PSPDMECADVPLLTPSSKEMMSQA [ETS1] | 5.15 ± 0.25 | 5.2 ± 0.11
38 | TMRYINGLDPEPLPLMDLCRRSIR [SPSB4] | 3.31 ± 0.36 | 3.42 ± 0.3
39 | KGYLFHTVAGKHQDLKYISPEIMA [CDC25A] | 2.32 ± 0.34 | 2.43 ± 0.23
40 | LTHFSRRYCQCNPDDSTSEDGIHT [PSD2] | 3.6 ± 0.27 | 3.77 ± 0.3
41 | MEREFNNLLALGTDRKLDDGDDKV [PPFIA4] | 5.47 ± 0.32 | 5.34 ± 0.58
42 | LAMKIKVGSDDLERIEARLATLEG [PSD2] | 2.79 ± 0.42 | 2.85 ± 0.49
43 | QVEVDAQQCMLEILDTAGTEQFTA [RAP1B] | 4.54 ± 0.12 | 4.59 ± 0.16
44 | LEEVERAILEMKWKVRAEKEACQR [ZBED2] | 3.87 ± 0.18 | 3.76 ± 0.21
45 | IIMWDIGGRKGRTLLLQGHHDKVQ [WDFY1] | 2.08 ± 0.55 | 2.2 ± 0.12
46 | GLETLFSKAQELGGAGREDPGLWS [ZSWIM9] | 3.18 ± 0.5 | 3.39 ± 0.23

Row | Sequence | protein stability index (treatment: DMSO) | protein stability index (treatment: MLN4924 1 uM, 8 h)
47 | GAHKDCQVAPLTHVFQRQKSELSD [TRIM55] | 4.73 ± 0.34 | 4.83 ± 0.16
48 | TQCSEEDQCKINKQIYNLIHLDPR [FEM1B] | 3.48 ± 0.12 | 3.4 ± 0.28
49 | GKTAASWCLHVNNWLQVSFTAKHA [FSD1] | 3.23 ± 0.46 | 3.09 ± 0.76
50 | TLFKKIQALQKEKETLAVNYEKEE [CCDC6] | 3.52 ± 0.27 | 3.35 ± 0.086
51 | SDPARYEFLWGPRAHAEIRKMSLL [MAGEA10] | 2.46 ± 0.3 | 2.49 ± 0.53
52 | DFYRCGYCKNESGSRSNGMWAHSM [ATE1] | 2.56 ± 0.59 | 2.2 ± 0.13
53 | GLSAGYVDAGAEPGRSRMISQEEF [LPCAT4] | 4.47 ± 0.32 | 4.78 ± 0.23
54 | GENSDGCYEHFAELDIPQSVQQNG [CLPTM1] | 5 ± 0.33 | 5.01 ± 0.32
55 | QLSTPHAVGVLLLGLVGYYIFRVA [DHCR7] | 2.91 ± 0.44 | 2.94 ± 0.35
56 | SLASQVHAAAVNGDKGALQRLIVG [INVS] | 3.02 ± 0.22 | 3.19 ± 0.29
57 | ARWRRLRLQQLRRLRGLLRVLRGR [FBXO33] | 3.52 ± 0.39 | 3.95 ± 0.65
58 | QYPNPLPVLSGAELEKAHLALIDY [VPS39] | 3.55 ± 0.24 | 3.58 ± 0.31
59 | FIDGKFLPCSSYIDSYDPSTGEVY [ALDH8A1] | 2.44 ± 1.2 | 2.66 ± 0.11
60 | SWFDNGSICMRMEILGCPLPDPNN [CPXM2] | 2.09 ± 0.089 | 2.3 ± 0.47
61 | GAGRRRRAGGPPRPMSEPGAGAGS [SMAD6] | 5.22 ± 0.41 | 5.21 ± 0.14
62 | CLTLATAVVQLYLALPPGAEHWTK [WAS] | 2.85 ± 0.87 | 2.77 ± 0.28
63 | GSRSNGMWAHSMTVQDYQDLIDRG [ATE1] | 3.92 ± 0.29 | 4.08 ± 0.29
64 | FFEKPDYDYLRKLFTDLFDRKGYM [CSNK1G3] | 2.05 ± 0.58 | 2.5 ± 0.25
65 | DSLLVVLDMDEGTLSFIVDGQYLG [SPSB4] | 2.52 ± 0.53 | 2.6 ± 0.69
66 | PVDLWACGVILYILLVGYPPFWDE [CAMK2A] | 3.08 ± 0.1 | 2.56 ± 0.096
67 | FFEILRLFFPVIYDVKYLMKSCKN [CNOT7] | 2.37 ± 0.9 | 2.87 ± 0.048
68 | YPNYEFISDNSISWSAGLHNRYTE [FUT8] | 2.51 ± 0.1 | 2.72 ± 0.36
69 | RSVDVVVSSVFLLTLSIAFICCAQ [PHTF1] | 3.33 ± 0.59 | 3.35 ± 0.6

Row | Sequence | protein stability index (treatment: DMSO) | protein stability index (treatment: MLN4924 1 uM, 8 h)
70 | GELLLDVAWHPVRPIIASISSGVV [RBBP5] | 2.3 ± 0.54 | 2.42 ± 0.59
71 | ELGGKNPAIIFEDANLDECIPATV [ALDH8A1] | 4.54 ± 0.28 | 4.72 ± 0.27
72 | KTSLWEEENALWEEERAFWMENNG [CCDC70] | 4 ± 0.12 | 3.94 ± 0.19
73 | FCSVIRINSTAPFEEQENYFLLCD [ZNF277] | 2.46 ± 0.7 | 1.83 ± 0.15
74 | PQKASAPAADPPRYTFAPSVSLNK [PDLIM7] | 4.33 ± 0.19 | 4.32 ± 0.22
75 | QQNEDLRRMAESLRIPEGPIDQGP [FUT8] | 4.96 ± 0.23 | 4.94 ± 0.17
76 | QRQAPGPARDYSQYYRTIEELQNK [KRT17] | 4.07 ± 0.15 | 4.12 ± 0.063
77 | ALVYSITAQSTFNDLQDLREQILR [RAP1B] | 2.27 ± 0.33 | 2.42 ± 0.4
78 | SELPFVPNYLANPAFPFIYTPTAE [ANKRD40] | 2.8 ± 0.19 | 2.95 ± 0.2
79 | MSERLRPRKRRRNGNEEDNHLPPQ [FAM104A] | 5.3 ± 0.14 | 5.39 ± 0.14
80 | LDTGTNYDYVREFKRSTGTWHHTK [GAN] | 3.34 ± 0.11 | 3.42 ± 0.25
81 | QQVKKLEKALKKNVKLQELINHKK [CEP70] | 2.6 ± 0.28 | 2.67 ± 0.41
82 | LSEEERSEKAMLRSRIEEQSQLIC [CCDC89] | 4.53 ± 0.3 | 4.62 ± 0.11
83 | EKSVLKEVSHPFLIRLFWTWHDER [PRKX] | 2.56 ± 0.29 | 2 ± 0.32
84 | RRAGEGRRSPRPDHPGTPPHKTFR [WEE1] | 4.78 ± 0.41 | 4.83 ± 0.32
85 | DPSIFTAQPNTMLGRMFGSGREHN [BTBD10] | 3.95 ± 0.27 | 3.79 ± 0.28
86 | TGRHYWEVDVQEAGAGWWVGAAYA [TRIM14] | 2.62 ± 0.8 | 2.58 ± 0.82
87 | YDGYRLRVEFPRSGRGTGRGGGGG [SRSF1] | 3.81 ± 0.26 | 3.99 ± 0.25
88 | ENAELESRIQEWYEFQIPYICPDY [KRT36] | 2.77 ± 0.46 | 2.9 ± 0.44
89 | IMNFIDIVAIIPYFITLGTEIAEQ [KCNA1] | 3.2 ± 0.41 | 2.89 ± 0.15
